From patent publication US20120134982A1 (published 2012)

Columns and labels:
[1] = biological target: human TNFR1, soluble recombinant protein (human) (UniProt P19438); assay: phage ELISA on 1 nM TNFR1 coat, anti-M13-HRP; phage after 100 ug/ml trypsin 1 h RT; phage input 2.26E+10
TNFR1-FC fusion [2] = biological target: T1, TNFR1-FC fusion (human, UniProt P19438 30-211, limits assumed); assay: RBA assay (column 'Activity (nM)'); taken to be of the Fc fusion; competition with TNF-alpha
T1 construct: not shown: Fc part, not described further
T1 sequence (looked up): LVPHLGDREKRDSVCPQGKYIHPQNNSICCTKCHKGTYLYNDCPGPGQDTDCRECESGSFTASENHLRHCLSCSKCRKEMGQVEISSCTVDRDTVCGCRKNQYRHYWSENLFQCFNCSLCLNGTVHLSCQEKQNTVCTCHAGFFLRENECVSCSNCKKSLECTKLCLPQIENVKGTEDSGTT

TNFR1-FC fusion [3] = biological target: T1, TNFR1-FC fusion; assay: TNFR-1 receptor binding assay: inhibition of TNF-alpha binding to TNFR1; after 7 days at 50 °C, concentration assumed from 1 mg/ml
TNFR1-FC fusion [4] = biological target: T1, TNFR1-FC fusion; assay: TNFR-1 receptor binding assay: inhibition of TNF-alpha binding to TNFR1; after 14 days at 50 °C, concentration assumed from 1 mg/ml
TNFR1-FC fusion [5] = biological target: T1, TNFR1-FC fusion; assay: TNFR-1 receptor binding assay: inhibition of TNF-alpha binding to TNFR1; unstressed sample (T0)
recombinant human VEGF = biological target: T2, recombinant human VEGF (human, UniProt P15692-4 27-191, biotinylated where used on streptavidin or neutravidin surfaces); assay: RBA assay (column 'Activity (nM)'); taken to be of the Fc fusion; competitor VEGFR2-Fc
T2 construct: also called hVEGF; VEGFA
T2 sequence (P15692 other isoform, or with tags, fused parts or gaps limits assumed): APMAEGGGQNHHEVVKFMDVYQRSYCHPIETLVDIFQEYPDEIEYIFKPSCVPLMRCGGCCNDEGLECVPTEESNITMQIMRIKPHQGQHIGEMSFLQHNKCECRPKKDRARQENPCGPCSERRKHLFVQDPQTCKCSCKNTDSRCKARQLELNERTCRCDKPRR

DOM1h-131
phage ELISA signal [1]: 0.337

B1: DMS1544 (DOM1h-131-206 Fc fusion) (Fc fusion)
chain: EVQLLESGGGLVQPGGSLRLSCAASGFTFAHETMVWVRQAPGKGLEWVSHIPPDGQDPFYADSVKGRFTISRDNSKNTLYLQMNSLRAEDTAVYHCALLPKRGPWFDYWGQGTLVTVSS
notes: dAb fused to human IgG1 Fc; dimeric Fc fusion format; not shown: short linker and human IgG1 Fc
EC50 (TNFR1-FC fusion [2]): 0.047 nM

B2: DOM1h-131-206 (other)
VH: EVQLLESGGGLVQPGGSLRLSCAASGFTFAHETMVWVRQAPGKGLEWVSHIPPDGQDPFYADSVKGRFTISRDNSKNTLYLQMNSLRAEDTAVYHCALLPKRGPWFDYWGQGTLVTVSS
notes: also called GSK1995057A
IC50 (read off the curve) (TNFR1-FC fusion [3]): ~0.1 nM
IC50 (read off the curve) (TNFR1-FC fusion [4]): ~0.1 nM

B3: DOM1h-131-511 (other)
VH: EVQLLESGGGLVQPGGSLRLSCAASGFTFAHETMVWVRQAPGKGLEWVSHIPPVGQDPFYADSVKGRFTISRDNSKNTLYLQMNSLRAEDTAVYYCALLPKRGPWFDYWGQGTLVTVSS
notes: Anti-TNFR1 domain antibody (dAb, immunoglobulin single variable domain, VH), tested as soluble monomer; also called GSK1995056A
IC50 (read off the curve) (TNFR1-FC fusion [5]): ~0.1 nM

B4: DMS1546 (DOM15-10 Fc fusion) (Fc fusion)
chain: DIQMTQSPSSLSASVGDRVTITCRASQWIGPELSWYQQKPGKAPKLLIYHTSILQSGVPSRFSGSGSGTDFTLTISSLQPEDFATYYCQQYMFQPRTFGQGTKVEIRR
notes: VK dAb fused to human IgG1 Fc; dimeric Fc fusion format; not shown: short linker and human IgG1 Fc
EC50 (recombinant human VEGF): 0.913 nM
